Experiments:
Experiment in all cases: EMSA; Light Shift Chemiluminescent EMSA Kit (Beyotime); buffer, salt, pH and temperature not stated
Details in all cases: protein: recombinant; tags: His (pET-30a(+)); label: biotin
PavDof6 = target: T1, PavDof6 (Prunus avium (sweet cherry), UniProt A0A6P5RUY3 1-310)
T1 sequence: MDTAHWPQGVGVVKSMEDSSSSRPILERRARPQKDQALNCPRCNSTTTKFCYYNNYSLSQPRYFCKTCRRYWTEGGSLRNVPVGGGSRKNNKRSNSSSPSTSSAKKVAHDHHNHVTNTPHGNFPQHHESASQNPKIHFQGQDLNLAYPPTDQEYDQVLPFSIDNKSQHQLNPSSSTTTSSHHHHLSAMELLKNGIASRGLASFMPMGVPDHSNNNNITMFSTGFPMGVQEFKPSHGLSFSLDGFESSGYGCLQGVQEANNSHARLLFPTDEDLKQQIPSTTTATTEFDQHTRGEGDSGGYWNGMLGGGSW

PavDof2 = target: T2, PavDof2 (Prunus avium (sweet cherry), UniProt A0A6P5T378 1-263)
T2 sequence: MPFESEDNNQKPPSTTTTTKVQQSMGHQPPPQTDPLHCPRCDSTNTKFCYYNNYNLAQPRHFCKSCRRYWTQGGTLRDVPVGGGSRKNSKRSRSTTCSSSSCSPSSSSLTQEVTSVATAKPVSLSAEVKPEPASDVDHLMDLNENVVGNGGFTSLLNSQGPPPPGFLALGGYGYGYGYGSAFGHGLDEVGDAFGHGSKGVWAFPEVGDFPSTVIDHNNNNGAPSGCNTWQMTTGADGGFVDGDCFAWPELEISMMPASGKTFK

PavDof15 = target: T3, PavDof15 (Prunus avium (sweet cherry), UniProt A0A6P5S8Z2 1-327)
T3 sequence: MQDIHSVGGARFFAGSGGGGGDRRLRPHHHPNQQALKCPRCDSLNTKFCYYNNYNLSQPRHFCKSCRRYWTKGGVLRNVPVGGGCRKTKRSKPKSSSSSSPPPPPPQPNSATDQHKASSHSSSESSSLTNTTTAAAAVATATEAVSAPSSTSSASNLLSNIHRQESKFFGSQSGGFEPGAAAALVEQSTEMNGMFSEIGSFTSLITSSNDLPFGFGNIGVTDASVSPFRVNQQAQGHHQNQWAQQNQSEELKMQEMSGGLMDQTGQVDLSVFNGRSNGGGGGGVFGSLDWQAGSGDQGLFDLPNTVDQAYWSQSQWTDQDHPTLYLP

Measured: binding result

B1: PavQRT3 promoter probe (dsDNA)
DNA 1: TTGAAAAGTTAGGAAAAAAGTTT
DNA 2: AAACTTTTTTCCTAACTTTTCAA
binds: PavDof6 | PavDof2 | PavDof15

B2: PavNCED1 promoter probe (Dof site) (dsDNA)
DNA 1: CTCAAAAGCTAGTTATATGGAAAAAGGGA
DNA 2: TCCCTTTTTCCATATAACTAGCTTTTGAG
binds: PavDof6 | PavDof2 | PavDof15

B3: PavXTH26 promoter probe (dsDNA)
DNA 1: AACATTCTTTTTGTAAATCAAGTAGTTAAAAGCATTTAC
DNA 2: GTAAATGCTTTTAACTACTTGATTTACAAAAAGAATGTT
binds: PavDof6 | PavDof2 | PavDof15

B4: PavPL18 promoter probe (dsDNA)
DNA 1: CATAAAAAGAAATAAAATGAAAAGAAAAGTGA
DNA 2: TCACTTTTCTTTTCATTTTATTTCTTTTTATG
binds: PavDof6 | PavDof2 | PavDof15

B5: PavXTH31 promoter probe (dsDNA)
DNA 1: TGCTTTTTTTTTTTTAAAGGATT
DNA 2: AATCCTTTAAAAAAAAAAAAGCA
binds: PavDof6 | PavDof2 | PavDof15

B6: PavPME44 promoter probe (dsDNA)
DNA 1: CTGCTTTTCTGAAAATTAAAGCAGTTTGGAGAAAAGTCC
DNA 2: GGACTTTTCTCCAAACTGCTTTAATTTTCAGAAAAGCAG
binds: PavDof6 | PavDof2 | PavDof15

Source: publication PMC9706453, “Abscisic acid-responsive transcription factors PavDof2/6/15 mediate fruit softening in sweet cherry”
